The values that follow come from PMC7994203, “E3 ligase-inactivation rewires CBL interactome to elicit oncogenesis by hijacking RTK–CBL–CIN85 axis” (Oncogene, 2021).

Changes are numbered by the printed parent chain. Non-standard residues stand in square brackets, D forms with d. No end group written: not given here. pY = N[C@@H](Cc1ccc(OP(=O)(O)O)cc1)C(=O)O

Targets include GST-CIN85-SH3B; GST-CIN85-SH3A; GST-CIN85-SH3C.
Holding throughout (assay): SPR; proteins immobilized via an N-terminal GST-tag, peptides as analyte; Biacore T200, steady-state affinity
Another test deals with T1, GST-CIN85 full-length (UniProt Q96B97 1-665).
T1 construct: CIN85 full-length; also called CIN85 FL; source: recombinant, purified (preparation in the Supplemental Information); not shown: GST, N-terminal, kept
To be noted: both partners purified.

The next test has as its target T2, GST-CBL-Y371S (47–435) (UniProt P22681 47-435, Y371S).
T2 construct: CBL fragment, residues 47-435, with the MDS/MPN mutation Y371S; also called CBL-Y371S fragment; source: recombinant, purified (preparation in the Supplemental Information); not shown: GST, N-terminal, kept
T2 sequence (looked up): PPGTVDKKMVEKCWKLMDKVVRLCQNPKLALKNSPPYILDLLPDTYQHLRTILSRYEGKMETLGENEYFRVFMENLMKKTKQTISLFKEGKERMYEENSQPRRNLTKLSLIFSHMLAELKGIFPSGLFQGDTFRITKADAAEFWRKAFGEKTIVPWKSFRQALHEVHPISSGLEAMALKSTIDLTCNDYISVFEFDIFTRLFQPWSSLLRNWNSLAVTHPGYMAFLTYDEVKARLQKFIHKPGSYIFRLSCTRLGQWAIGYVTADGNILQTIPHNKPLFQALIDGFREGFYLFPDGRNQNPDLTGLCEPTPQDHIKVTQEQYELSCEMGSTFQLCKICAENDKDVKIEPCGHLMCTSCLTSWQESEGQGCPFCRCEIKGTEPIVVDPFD
To be noted: both partners purified.

The target in a further test is T3, GST-WT-CBL (47–435) (UniProt P22681 47-435).
T3 construct: CBL fragment, residues 47-435; also called WT-CBL fragment; source: recombinant, purified (preparation in the Supplemental Information); not shown: GST, N-terminal, kept
T3 sequence (looked up): T2 sequence (looked up) with S325Y
To be noted: both partners purified.

T1 sequence (Q96B97 whole entry): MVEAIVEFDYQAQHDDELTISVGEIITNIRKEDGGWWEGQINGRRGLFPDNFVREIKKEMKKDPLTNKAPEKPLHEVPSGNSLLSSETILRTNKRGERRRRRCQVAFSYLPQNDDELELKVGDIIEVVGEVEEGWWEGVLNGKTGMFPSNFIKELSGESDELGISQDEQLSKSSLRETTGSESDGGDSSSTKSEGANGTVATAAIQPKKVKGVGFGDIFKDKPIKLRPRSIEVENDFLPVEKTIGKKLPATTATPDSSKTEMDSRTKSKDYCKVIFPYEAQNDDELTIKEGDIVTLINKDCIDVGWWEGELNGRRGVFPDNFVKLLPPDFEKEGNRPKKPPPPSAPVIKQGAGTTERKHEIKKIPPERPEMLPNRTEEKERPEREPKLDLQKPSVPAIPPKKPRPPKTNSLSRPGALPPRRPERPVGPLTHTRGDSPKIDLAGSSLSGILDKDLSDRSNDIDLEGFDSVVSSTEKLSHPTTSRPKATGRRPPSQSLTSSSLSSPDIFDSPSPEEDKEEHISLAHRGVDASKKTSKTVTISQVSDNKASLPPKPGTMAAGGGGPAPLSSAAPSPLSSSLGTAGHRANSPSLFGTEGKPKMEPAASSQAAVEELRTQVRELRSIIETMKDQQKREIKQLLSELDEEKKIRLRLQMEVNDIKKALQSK

As for PERPPKPFPRRIN (also called proline-rich peptide of CBL) [PepC1], the equilibrium dissociation constant (Kd) with GST-CIN85 full-length came out at 5.5 µM; with GST-CIN85-SH3B it was 2.3 µM; with GST-CIN85-SH3A, 35.6 µM; in the test with GST-CIN85-SH3C, 68 µM.

B1: tyrosine-phosphorylated EGFR peptide (peptide)
peptide: LQR[pY]SSDPTGA
notes: EGFR peptide with a phosphotyrosine; also called pY-EGFR peptide
Regarding B1, the Kd in the test with GST-CBL-Y371S (47–435) is 0.6 µM; with GST-WT-CBL (47–435), 1.2 µM.

By Kd is commonly meant a measure of binding affinity in units of concentration. High values mean lower affinity, low ones higher affinity.
